Source: PMC9174195, “Structural insights into human brain–gut peptide cholecystokinin receptors” (Cell Discovery, 2022)
One block for each molecule: values may come before it. Square brackets hold non-standard residues; d marks the D form. Ends that are not written are not given here. sY = N[C@@H](Cc1ccc(OS(=O)(=O)O)cc1)C(=O)O

Key:
CCK2R K324N (human) = CCK2R K324N (human) (UniProt P32239)
CCK2R I156A (human) = CCK2R I156A (human) (UniProt P32239)
CCK2R L335A (human) = CCK2R L335A (human) (UniProt P32239)
CCK2R R152A (human) = CCK2R R152A (human) (UniProt P32239)
CCK2R Q166A (human) = CCK2R Q166A (human) (UniProt P32239)
[1] = target: T1, human CCK2R with 15-residue depletion at the C-terminus, N-terminal Flag-tag, C-terminal LgBiT and double MBP … (human, UniProt P32239 1-432); experiment: cryo-EM structure; gastrin-17–CCK2R–Gq–scFv16 complex; CCK2R, GqiN, Gβγ-peptide and Ric-8A co-expressed in Sf9, ligand and apyrase added, complex purified on MBP resin and Superdex 200 (20 mM HEPES pH 7.5, 100 mM NaCl); 13 mg/mL on the grid; 3.1 Å; details: both partners purified
T1 construct: human cholecystokinin receptor CCK2R, wild type, C-terminal 15 residues removed; also called CCK2 receptor; gastrin receptor; not shown: LgBiT, C-terminal, kept
T1 sequence (looked up): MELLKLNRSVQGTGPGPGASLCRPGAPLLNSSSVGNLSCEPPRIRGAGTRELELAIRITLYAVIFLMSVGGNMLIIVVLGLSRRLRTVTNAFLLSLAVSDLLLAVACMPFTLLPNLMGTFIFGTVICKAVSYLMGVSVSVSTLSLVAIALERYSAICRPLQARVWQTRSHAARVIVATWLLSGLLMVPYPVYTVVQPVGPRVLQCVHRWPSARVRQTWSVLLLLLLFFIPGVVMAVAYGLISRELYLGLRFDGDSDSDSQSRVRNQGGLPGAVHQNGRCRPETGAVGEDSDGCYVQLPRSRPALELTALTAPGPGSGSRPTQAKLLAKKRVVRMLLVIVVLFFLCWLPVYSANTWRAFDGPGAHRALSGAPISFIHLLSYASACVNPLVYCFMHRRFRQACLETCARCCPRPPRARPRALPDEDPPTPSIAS

- coupling potency with Gs against wild-type CCK2R, CCK-8-induced cAMP accumulation (Fig. 7d) (CCK2R K324N (human)): > 3 fold
Molecule: dominant-negative human Gαs (DNGαs) (from UniProt P63092 1-394) (natural protein)

- CCK-8 efficacy, CCK-8-induced Gαq–Gγ dissociation (NanoBiT) assay (% reduction of efficacy) (CCK2R I156A (human)): 50
- CCK-8 efficacy, CCK-8-induced Gαq–Gγ dissociation (NanoBiT) assay (% reduction of efficacy) (CCK2R L335A (human)): 50
- efficacy of G protein signaling against the wild type, CCK-8-induced Gαq–Gγ dissociation (NanoBiT) assay (% of the wild-type) (CCK2R R152A (human)): 30
- potency of G protein signaling against the wild type, CCK-8-induced Gαq–Gγ dissociation (NanoBiT) assay (CCK2R R152A (human)): > 3 fold
- CCK-8 efficacy, CCK-8-induced Gαq–Gγ dissociation (NanoBiT) assay (% reduction of efficacy) (CCK2R Q166A (human)): 50
Molecule: Gαq with the 29 N-terminal amino acids replaced by the corresponding sequence of Gαi1 (GqiN) (from UniProt P50148 30-359)

- binding result [1]: binds
B1: sulfated gastrin-17 (peptide, UniProt P01350 76-92, looked up)
peptide: QGPWLEEEEEA[sY]GWMDF
modifications: not fully specified (residue 1, C-terminus)
notes: gastrin-17, cut product of the gastrin precursor
